Paper PMC4049585, “Identification and Characterization of a Ginsenoside-Transforming β-Glucosidase from Pseudonocardia sp. Gsoil 1536 and Its Application for Enhanced Production of Minor Ginsenoside Rg2(S)” (PLoS ONE, 2014)

Experiments:
[1] = system: T1, O=[N+]([O-])c1ccc(O[C@@H]2O[C@H](CO)[C@@H](O)[C@H](O)[C@H]2O)cc1; assay: purified protein; assay type: biochemical, Pseudonocardia sp. Gsoil 1536; conditions: pNPG 1-20 mM, standard assay 50 mM sodium phosphate pH 7.0, 37°C
T1 construct: 743 residues, 78,975 Da predicted; GST fusion (pGEX 4T-1) from E. coli BL21(DE3), 105 kDa with GST; forward primer encodes IDPVDLTL after GS

[2] = system: T2, CC(C)=CCC[C@](C)(O[C@@H]1O[C@H](CO)[C@@H](O)[C@H](O)[C@H]1O)[C@H]1CC[C@]2(C)[C@@H]1[C@H](O)C[C@@H]1[C@@]3(C)CC[C@H](O)C(C)(C)[C@@H]3[C@@H](O[C@@H]3O[C@H](CO)[C@@H](O)[C@H](O)[C@H]3O[C@@H]3O[C@@H](C)[C@H](O)[C@@H](O)[C@H]3O)C[C@]12C; assay: initial velocity, Re conversion, Cleland kinetics program; assay type: biochemical, Pseudonocardia sp. Gsoil 1536; conditions: Re 0.2-5.0 mM; Re substrate lot purity 87.6%; temperature and buffer of kinetics not given
T2 construct: 743 residues, 78,975 Da predicted; GST fusion (pGEX 4T-1) from E. coli BL21(DE3), 105 kDa with GST; forward primer encodes IDPVDLTL after GS
Source text: initial velocity, Re conversion, Cleland kinetics program on BglPC28

For BglPC28 (Pseudonocardia sp. Gsoil1536), the Km [1] was 6.36 ± 1.10 mM, the Vmax [1] was 40 µmol/min/mg and the kcat [1] was 52.7 ± 3.4 s⁻¹. It also gave a kcat/Km [1] of 8630 ± 2020 M⁻¹ s⁻¹, a Km [2] of 1.42 ± 0.13 mM and a Vmax [2] of 5.62 µmol/min/mg. It also gave a kcat [2] of 7.4 ± 0.28 s⁻¹ and a kcat/Km [2] of 5280 ± 690 M⁻¹ s⁻¹.
